B1: ACF43: 43 kDa ACF variant, SEQ ID NO:19 (protein)
chain: MESNHKSGDGLSGTQKEAALRALVQRTGYSLVQENGQRKYGGPPPGWDAAPPERGCEIFIGKLPRDLFEDELIPLCEKIGKIYEMRMMMDFNGNNRGYAFVTFSNKVEAKNAIKQLNNYEIRNGRLLGVCASVDNCRLFVGGIPKTKKREEILSEMKKVTEGVVDVIVYPSAADKTKNRGFAFVEYESHRAAAMARRKLLPGRIQLWGHGIAVDWAEPEVEVDEDTMSSVKILYVRNLMLSTSEEMIEKEFNNIKPGAVERVKKIRDYAFVHFSNRKDAVEAMKALNGKVLDGSPIEVTLAKPVDKDSYVRYTRGTGGRGTMLQGEYTYSLGQVYDPTTTYLGAPVFYAPQTYAAIPSLHFPATKGHLSNRAIIRAPSVRGAAGVRGLGGRGYLAYTGLGRGYQVKGDKREDKLYDILPGMELTPMNPVTLKPQGIKLAPQILEEICQKNNWGQPVYQLHSAIGQDQRQLFLYKITIPALASQNPAIHPFTPPKLSAFVDEAKTYAAEYTLQTLGIPTDGGDGTMATAAAAATAFPGYAVPNATAPVSAAQLKQAVTLGQDLAAYTTYEVYPTFAVTARGDGYGTF
B2: ACF45: 45 kDa ACF variant, SEQ ID NO:18 (protein)
chain: B1 chain
B3: S154D: ACF64 with serine 154 to aspartic acid substitution (protein)
chain: MESNHKSGDGLSGTQKEAALRALVQRTGYSLVQENGQRKYGGPPPGWDTTPPERGCEIFIGKLPRDLFEDELIPLCEKIGKIYEMRMMMDFNGNNRGYAFVTFSNKQEAKNAIKQLNNYEIRNGRLLGVCASVDNCRLFVGGIPKTKKREEILDEMKKVTEGVVDVIVYPSAADKTKNRGFAFVEYESHRAAAMARRRLLPGRIQLWGHPIAVDWAEPEVEVDEDTMSSVKILYVRNLMLSTSEEMIEKEFNSIKPGAVERVKKIRDYAFVHFSNREDAVEAMKALNGKVLDGSPIEVTLAKPVDKDSYVRYTRGTGGRNTMLQEYTYPLSHVYDPTTTYLGAPVFYTPQAYAAIPSLHFPATKGHLSNRALIRTPSVRGAAGVRGLGGRGYLAYTGLGRGYQVKGDKRQDKLYDLLPGMELTPMNTISLKPQGVKLAPQILEEICQKNNWGQPVYQLHSAIGQDQRQLFLYKVTIPALASQNPAIHPFTPPKLSAYVDEAKRYAAEHTLQTLGIPTEGGDAGTTAPTATSATVFPGYAVPSATAPVSTAQLKQAVTLGQDLAAYTTYEVYPTFAVTTRGDGYGTF
B4: ACF64: 64 kDa ACF variant, SEQ ID NO:1 (protein)
chain: MESNHKSGDGLSGTQKEAALRALVQRTGYSLVQENGQRKYGGPPPGWDAAPPERGCEIFIGKLPRDLFEDELIPLCEKIGKIYEMRMMMDFNGNNRGYAFVTFSNKVEAKNAIKQLNNYEIRNGRLLGVCASVDNCRLFVGGIPKTKKREEILSEMKKVTNEGVVDVIVYPSAADKTKNRGFAFVEYESHRTAAMARRKLLPGRIQLWGHGIAVDWAEPEVEVDEDTMSSVKILYVRNLMLSTSEEMIEKEFNNIKPGAVERVKKIRDYAFVHFSNRKDAVEAMKALNGKVLDGSPIEVTLAKPVDKDSYVRYTRGTGGRGTMLQGEYTYSLGQVYDPTTTYLGAPVFYAPQTYAAIPSLHFPATKGHLSNRAIIRAPSVRGAAGVRGLGGRGYLAYTGLGRGYQVKGDKREDKLYDILPGMELTPMNPVTLKPQGIKLAPQILEEICQKNNWGQPVYQLHSAIGQDQRQLFLYKITIPALASQNPAIHPFTPPKLSAFVDEAKTYAAENYTLQTLGIPTDGGDGTMATAAAAATAFPGYAVPNATAPVSAAQLKQAVTLGQDLAAYTNTYEVYPTFAVTARGDGYGTF

How the values were obtained:
apoB mRNA editing [1] = experiment: apoB mRNA editing in McAPOBEC cells transfected with ACF isoforms; type: cell-based, rat; settings: HA-tagged
Source text: The overall expression and subcellular localization of epitope tagged ACF isoforms is established by western blotting of nuclear and cytoplasmic extracts (prepared using NE-PER system; Pierce). These biochemical studies are complemented by immunofluorescence microscopy of paraformaldehyde fixed cells reacted with epitope tag or ACF isoform-specific antibodies. In pilot experiments varying levels of HA-tagged ACF43 and ACF45 were expressed by transfecting differing amounts of cDNA into McArdle or McAPOBEC cells (FIGS. 35A & C, western blots). The level of exogenously expressed HA-tagged APOBEC-1 in McAPOBEC cells was high and unaffected by ACF isoform expression (FIG. 35C). Sufficient endogenous ACF was expressed in McAPOBEC cells to support 61% editing (FIG. 35D, poisoned primer extension) given the level of APOBEC-1 overexpression (FIG. 35C). […] ACF43's facilitation of ACF64/65 binding to apoB mRNA enhanced editing activity only when APOBEC-1 abundance was not rate limiting (analogous to FIG. 34, insulin). […] ACF expression levels, subcellular localization and editing activity are determined from replicate experiments and the relative affects of overexpressing each isoform compared in the absence (negative control) or presence of ethanol and to the response seen in wild type cells (positive control).

apoB mRNA editing [2] = experiment: apoB mRNA editing in McArdle cells (ethanol, ACF wild type, mutants and isoforms); type: cell-based, rat; settings: for effect of isoform expression on editing: HA-tagged, transfected McArdle cells
Method: McArdle RH7777 cells (ATCC Manassas, Va.) stably expressing HA epitope-tagged APOBEC-1 (Yang et al. J Biol Chem 272:27700-6 (1997)) were treated for 4 hours with 0.9% ethanol and fractionated into nuclear extracts (Van Mater et al. (1998)).
To calibrate the system cells were incubated in the presence of ethanol for 4 hours and the amount of edited apoB mRNA determined.
The overall expression and subcellular localization of epitope tagged ACF isoforms is established by western blotting of nuclear and cytoplasmic extracts (prepared using NE-PER system; Pierce). These biochemical studies are complemented by immunofluorescence microscopy of paraformaldehyde fixed cells reacted with epitope tag or ACF isoform-specific antibodies. In pilot experiments varying levels of HA-tagged ACF43 and ACF45 were expressed by transfecting differing amounts of cDNA into McArdle or McAPOBEC cells (FIGS. 35A & C, western blots). […] The above transient transfection scenarios can be recapitulated in ethanol treated cells to evaluate the affect of ACF isoform abundance on cells ability to respond to metabolic perturbation. […] ACF expression levels, subcellular localization and editing activity are determined from replicate experiments and the relative affects of overexpressing each isoform compared in the absence (negative control) or presence of ethanol and to the response seen in wild type cells (positive control).

| Molecule | effect of isoform expression on editing (61% editing without) (apoB mRNA editing [1]) | effect of isoform expression on editing (apoB mRNA editing [2]) | enhancement of editing (apoB mRNA editing [2]; stable McArdle cell line) [%] | stimulation of editing by stable ectopic expression compared to untransfected McArdle cells (apoB mRNA editing [2]; stable cell line) [%] | further stimulation of editing on addition of ethanol (apoB mRNA editing [2]; stable cell line, ethanol) [fold] |
| --- | --- | --- | --- | --- | --- |
| B1 | stimulated editing activity | did not affect editing |  |  |  |
| B2 | had no affect | inhibited editing over two-fold |  |  |  |
| B3 |  |  | 67 |  |  |
| B4 |  |  |  | 19 | 3 |

From patent US20090075925A1, “Methods and Compositions Related to APOBEC-1 Expression” (priority 2006, published 2009)
